Test results published in US20240116985A1 (published 2024).
Starred links: 1 amine or outer side, 2 acyl side, 3 side chain; linkers in the order of their positions; H or OH if unused. Positions of bridges follow the written chain, without caps; N, C: chain ends. Non-standard residues stand in square brackets, D forms with d. Primed or numbered codes have the meaning given here. B5(24) = 2-amino-2-(pent-4-en-1-yl)hept-6-enoic acid, 2,2-bis(4-pentenyl)glycine (stitching residue), C=CCCCC(CCCC=C)(N[*:1])C(=O)[*:2]; Phe(2-Br) = N[C@@H](Cc1ccccc1Br)C(=O)O; Phe(2-F) = N[C@@H](Cc1ccccc1F)C(=O)O; Bta = N[C@@H](Cc1csc2ccccc12)C(=O)O; αAllylPro = C=CC[C@@]1(C(=O)O)CCCN1; S8 = C=CCCCCCC[C@](C)(N)C(=O)O

T1: full-length beta-Catenin (Uniprot ID P35222) (Homo sapiens (Human), UniProt P35222 1-781)
T1 construct: also called bCat; B-Catenin
T1 sequence: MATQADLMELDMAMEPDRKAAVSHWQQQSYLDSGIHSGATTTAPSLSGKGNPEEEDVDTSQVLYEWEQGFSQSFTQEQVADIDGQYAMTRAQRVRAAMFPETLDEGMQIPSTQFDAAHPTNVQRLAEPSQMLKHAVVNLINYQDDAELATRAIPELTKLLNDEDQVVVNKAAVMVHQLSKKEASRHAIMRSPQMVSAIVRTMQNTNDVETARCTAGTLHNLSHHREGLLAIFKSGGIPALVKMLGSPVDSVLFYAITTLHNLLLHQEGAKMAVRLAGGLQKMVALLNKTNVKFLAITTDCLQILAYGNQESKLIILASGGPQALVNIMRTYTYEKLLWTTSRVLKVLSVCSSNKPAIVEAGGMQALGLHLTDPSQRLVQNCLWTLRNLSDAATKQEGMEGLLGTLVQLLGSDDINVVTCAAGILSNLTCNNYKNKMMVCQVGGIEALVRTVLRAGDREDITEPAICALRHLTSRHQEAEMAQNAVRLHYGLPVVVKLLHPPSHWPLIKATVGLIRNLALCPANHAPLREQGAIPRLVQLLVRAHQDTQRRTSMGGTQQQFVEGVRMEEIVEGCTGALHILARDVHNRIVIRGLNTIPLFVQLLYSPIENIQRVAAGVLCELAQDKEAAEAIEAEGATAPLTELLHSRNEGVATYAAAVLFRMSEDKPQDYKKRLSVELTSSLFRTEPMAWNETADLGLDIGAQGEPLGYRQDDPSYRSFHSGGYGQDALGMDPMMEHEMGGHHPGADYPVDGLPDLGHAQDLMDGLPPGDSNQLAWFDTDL

T2: full-length beta-Catenin (Uniprot ID P35222) (Homo sapiens (Human), UniProt P35222 1-781)
T2 construct: The assay protocol says full-length beta-Catenin (Uniprot ID P35222); tags are not described; also called bCat; B-Catenin
T2 sequence: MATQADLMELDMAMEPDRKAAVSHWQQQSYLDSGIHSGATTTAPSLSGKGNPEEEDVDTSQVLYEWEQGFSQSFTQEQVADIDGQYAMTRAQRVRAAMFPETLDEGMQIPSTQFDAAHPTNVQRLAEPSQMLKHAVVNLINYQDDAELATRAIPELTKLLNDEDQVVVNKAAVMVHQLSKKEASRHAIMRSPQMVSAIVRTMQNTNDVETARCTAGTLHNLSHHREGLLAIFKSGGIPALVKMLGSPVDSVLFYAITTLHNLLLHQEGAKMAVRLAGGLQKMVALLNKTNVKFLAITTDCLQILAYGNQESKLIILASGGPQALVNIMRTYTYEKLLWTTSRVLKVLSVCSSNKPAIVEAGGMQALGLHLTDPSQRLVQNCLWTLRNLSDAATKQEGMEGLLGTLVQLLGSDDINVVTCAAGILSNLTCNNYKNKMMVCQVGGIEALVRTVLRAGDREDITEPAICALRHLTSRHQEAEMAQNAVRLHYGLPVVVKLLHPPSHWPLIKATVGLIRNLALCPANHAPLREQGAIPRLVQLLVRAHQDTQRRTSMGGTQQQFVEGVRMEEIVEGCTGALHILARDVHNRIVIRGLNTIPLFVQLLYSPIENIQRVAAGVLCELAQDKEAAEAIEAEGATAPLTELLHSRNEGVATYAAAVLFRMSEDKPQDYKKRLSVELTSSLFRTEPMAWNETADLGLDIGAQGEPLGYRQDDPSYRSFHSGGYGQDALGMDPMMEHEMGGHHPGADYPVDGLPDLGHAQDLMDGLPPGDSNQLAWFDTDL


Columns and labels:
[1] = target: T1, full-length beta-Catenin (Uniprot ID …); experiment: fluorescence polarization competition; full-length beta-catenin, competitor 5FAM-TCF4(10-53) probe
Experimental: (§1) The plate was incubated protected from light for 60 minutes at 20° C. prior to read. Reads were performed on a CLARIOstar plate reader (BMG Labtech) in duplicate, and data were fitted to a 1:1 binding model with hill slope using an in-house script. All provided concentrations are final concentrations.

[2] = target: T2, full-length beta-Catenin (Uniprot ID …); experiment: fluorescence polarization competition: full-length beta-catenin + 5FAM-TCF4(10-53) probe, peptide titrated
Experimental: as §1

Row | Binder | IC50 [1] [nM] | EC50 [2] [nM]
1 | XDLXDEAAFNXFXQI (not fully specified; N-terminal Ac; C-terminal NH2; PL3 at 1, B5 at 4, S8 at 11, BztA at 13, dIle (D-Ile) at 15; stapled PL3-B5 and B5-S8 by olefin metathesis, Stapled peptide; also called Ac-PL3-Asp-Leu-B5-Asp-Glu-Ala-Ala-Phe-Asn-S8-Phe-BztA-Gln-dIle-NH2) [I-734] | 370 | 
2 | Ac-[αAllylPro]DA[B5(24)]DEAAFN[S8][Phe(2-Br)][Bta]Q-NH2 (staple 1-4, 4-11, Stapled (stitched) peptide with non-natural residues) [I-436] |  | 56
3 | XDLXDEAAFNXFXQI (not fully specified; N-terminal Ac; C-terminal NH2; PL3 at 1, B5 at 4, S8 at 11, BztA at 13; stapled PL3-B5 and B5-S8 by olefin metathesis, Stapled peptide; also called Ac-PL3-Asp-Leu-B5-Asp-Glu-Ala-Ala-Phe-Asn-S8-Phe-BztA-Gln-Ile-NH2) [I-732] | 4220 | 
4 | XDLXDEAAFNXFXHI (not fully specified; N-terminal Ac; C-terminal NH2; PL3 at 1, B5 at 4, S8 at 11, BztA at 13; stapled PL3-B5 and B5-S8 by olefin metathesis, Stapled peptide; same description as I-741, earlier eluting staple isomer composition; also called Ac-PL3-Asp-Leu-B5-Asp-Glu-Ala-Ala-Phe-Asn-S8-Phe-BztA-His-Ile-NH2) [I-740] | 376 | 
5 | Ac-[αAllylPro]DA[B5(24)]DEAAFN[S8][Phe(2-F)][Bta]Q-NH2 (staple 1-4, 4-11, Stapled (stitched) peptide with non-natural residues) [I-434] |  | 67.5

More lines, now with the values ahead:

Row | IC50 [1] [nM] | EC50 [2] [nM] | Binder
6 | 56 |  | XDLXDEAAFNXFXQA (not fully specified; N-terminal Ac; C-terminal NH2; PL3 at 1, B5 at 4, S8 at 11, BztA at 13; stapled PL3-B5 and B5-S8 by olefin metathesis, Stapled peptide; same description as I-730, earlier eluting staple isomer composition; also called Ac-PL3-Asp-Leu-B5-Asp-Glu-Ala-Ala-Phe-Asn-S8-Phe-BztA-Gln-Ala-NH2) [I-729]
7 | 159 |  | XDLXDEAAFNXFXHI (not fully specified; N-terminal Ac; C-terminal NH2; PL3 at 1, B5 at 4, S8 at 11, BztA at 13, dIle (D-Ile) at 15; stapled PL3-B5 and B5-S8 by olefin metathesis, also called Ac-PL3-Asp-Leu-B5-Asp-Glu-Ala-Ala-Phe-Asn-S8-Phe-BztA-His-dIle-NH2) [I-742]
8 | 63 |  | XDLXDEAAFNXFXHA (not fully specified; N-terminal Ac; C-terminal NH2; PL3 at 1, B5 at 4, S8 at 11, BztA at 13; stapled PL3-B5 and B5-S8 by olefin metathesis, also called Ac-PL3-Asp-Leu-B5-Asp-Glu-Ala-Ala-Phe-Asn-S8-Phe-BztA-His-Ala-NH2) [I-738]
9 | 53 |  | XDLXDEAAFNXFXHA (not fully specified; N-terminal Ac; C-terminal NH2; PL3 at 1, B5 at 4, S8 at 11, BztA at 13, dAla (D-Ala) at 15; stapled PL3-B5 and B5-S8 by olefin metathesis, also called Ac-PL3-Asp-Leu-B5-Asp-Glu-Ala-Ala-Phe-Asn-S8-Phe-BztA-His-dAla-NH2) [I-739]
10 | 226 |  | XDLXDEAAFNXFXHI (not fully specified; N-terminal Ac; C-terminal NH2; PL3 at 1, B5 at 4, S8 at 11, BztA at 13; stapled PL3-B5 and B5-S8 by olefin metathesis, Stapled peptide; same description as I-740, later eluting staple isomer composition; also called Ac-PL3-Asp-Leu-B5-Asp-Glu-Ala-Ala-Phe-Asn-S8-Phe-BztA-His-Ile-NH2) [I-741]
